According to patent US20150344540A1, “NOVEL GLP-1 RECEPTOR AGONISTS WITH CHOLESTEROL EFFLUX ACTIVITY” (NOVO NORDISK A/S, priority 2012, published 2015):
Where no end group is shown, it is not given here. [ ]: non-standard residue; d: D form. Aib = CC(C)(N)C(=O)O

B1: [Aib8,Glu23,Val25,Leu27,Glu34,Lys35,Aib36,Lys37]-GLP-1-(7-37)-peptidyl-Glu-Phe-Leu amide (peptide)
peptide: H[Aib]EGTFTSDVSSYLEGEAVKLFIAWLVEK[Aib]KEFL-NH2
modifications: N-terminus assumed
SMILES: CC[C@H](C)[C@H](NC(=O)[C@H](Cc1ccccc1)NC(=O)[C@H](CC(C)C)NC(=O)[C@H](CCCCN)NC(=O)[C@@H](NC(=O)[C@H](C)NC(=O)[C@H](CCC(=O)O)NC(=O)CNC(=O)[C@H](CCC(=O)O)NC(=O)[C@H](CC(C)C)NC(=O)[C@H](Cc1ccc(O)cc1)NC(=O)[C@H](CO)NC(=O)[C@H](CO)NC(=O)[C@@H](NC(=O)[C@H](CC(=O)O)NC(=O)[C@H](CO)NC(=O)[C@@H](NC(=O)[C@H](Cc1ccccc1)NC(=O)[C@@H](NC(=O)CNC(=O)[C@H](CCC(=O)O)NC(=O)C(C)(C)NC(=O)[C@@H](N)Cc1c[nH]cn1)[C@@H](C)O)[C@@H](C)O)C(C)C)C(C)C)C(=O)N[C@@H](C)C(=O)N[C@@H](Cc1c[nH]c2ccccc12)C(=O)N[C@@H](CC(C)C)C(=O)N[C@H](C(=O)N[C@@H](CCC(=O)O)C(=O)N[C@@H](CCCCN)C(=O)NC(C)(C)C(=O)N[C@@H](CCCCN)C(=O)N[C@@H](CCC(=O)O)C(=O)N[C@@H](Cc1ccccc1)C(=O)N[C@@H](CC(C)C)C(N)=O)C(C)C
B2: [Aib8,Glu23,Val25,Glu34,Aib36,Lys37]-GLP-1-(7-37)-peptidyl-Glu-Phe-Leu amide (peptide)
peptide: H[Aib]EGTFTSDVSSYLEGEAVKEFIAWLVEG[Aib]KEFL-NH2
modifications: N-terminus assumed
SMILES: CC[C@H](C)[C@H](NC(=O)[C@H](Cc1ccccc1)NC(=O)[C@H](CCC(=O)O)NC(=O)[C@H](CCCCN)NC(=O)[C@@H](NC(=O)[C@H](C)NC(=O)[C@H](CCC(=O)O)NC(=O)CNC(=O)[C@H](CCC(=O)O)NC(=O)[C@H](CC(C)C)NC(=O)[C@H](Cc1ccc(O)cc1)NC(=O)[C@H](CO)NC(=O)[C@H](CO)NC(=O)[C@@H](NC(=O)[C@H](CC(=O)O)NC(=O)[C@H](CO)NC(=O)[C@@H](NC(=O)[C@H](Cc1ccccc1)NC(=O)[C@@H](NC(=O)CNC(=O)[C@H](CCC(=O)O)NC(=O)C(C)(C)NC(=O)[C@@H](N)Cc1c[nH]cn1)[C@@H](C)O)[C@@H](C)O)C(C)C)C(C)C)C(=O)N[C@@H](C)C(=O)N[C@@H](Cc1c[nH]c2ccccc12)C(=O)N[C@@H](CC(C)C)C(=O)N[C@H](C(=O)N[C@@H](CCC(=O)O)C(=O)NCC(=O)NC(C)(C)C(=O)N[C@@H](CCCCN)C(=O)N[C@@H](CCC(=O)O)C(=O)N[C@@H](Cc1ccccc1)C(=O)N[C@@H](CC(C)C)C(N)=O)C(C)C
B3: [Aib8,Glu23,Val25,Glu34,Lys35,Aib36,Lys37]-GLP-1-(7-37)-peptidyl-His-Phe-Leu amide (peptide)
peptide: H[Aib]EGTFTSDVSSYLEGEAVKEFIAWLVEK[Aib]KHFL-NH2
modifications: N-terminus assumed
SMILES: CC[C@H](C)[C@H](NC(=O)[C@H](Cc1ccccc1)NC(=O)[C@H](CCC(=O)O)NC(=O)[C@H](CCCCN)NC(=O)[C@@H](NC(=O)[C@H](C)NC(=O)[C@H](CCC(=O)O)NC(=O)CNC(=O)[C@H](CCC(=O)O)NC(=O)[C@H](CC(C)C)NC(=O)[C@H](Cc1ccc(O)cc1)NC(=O)[C@H](CO)NC(=O)[C@H](CO)NC(=O)[C@@H](NC(=O)[C@H](CC(=O)O)NC(=O)[C@H](CO)NC(=O)[C@@H](NC(=O)[C@H](Cc1ccccc1)NC(=O)[C@@H](NC(=O)CNC(=O)[C@H](CCC(=O)O)NC(=O)C(C)(C)NC(=O)[C@@H](N)Cc1c[nH]cn1)[C@@H](C)O)[C@@H](C)O)C(C)C)C(C)C)C(=O)N[C@@H](C)C(=O)N[C@@H](Cc1c[nH]c2ccccc12)C(=O)N[C@@H](CC(C)C)C(=O)N[C@H](C(=O)N[C@@H](CCC(=O)O)C(=O)N[C@@H](CCCCN)C(=O)NC(C)(C)C(=O)N[C@@H](CCCCN)C(=O)N[C@@H](Cc1c[nH]cn1)C(=O)N[C@@H](Cc1ccccc1)C(=O)N[C@@H](CC(C)C)C(N)=O)C(C)C
B4: [Aib8,Glu23,Val25,Glu34,Lys35,Aib36]-GLP-1-(7-37)-peptidyl-Glu-Phe-Leu amide (peptide)
peptide: H[Aib]EGTFTSDVSSYLEGEAVKEFIAWLVEK[Aib]GEFL-NH2
modifications: N-terminus assumed
SMILES: CC[C@H](C)[C@H](NC(=O)[C@H](Cc1ccccc1)NC(=O)[C@H](CCC(=O)O)NC(=O)[C@H](CCCCN)NC(=O)[C@@H](NC(=O)[C@H](C)NC(=O)[C@H](CCC(=O)O)NC(=O)CNC(=O)[C@H](CCC(=O)O)NC(=O)[C@H](CC(C)C)NC(=O)[C@H](Cc1ccc(O)cc1)NC(=O)[C@H](CO)NC(=O)[C@H](CO)NC(=O)[C@@H](NC(=O)[C@H](CC(=O)O)NC(=O)[C@H](CO)NC(=O)[C@@H](NC(=O)[C@H](Cc1ccccc1)NC(=O)[C@@H](NC(=O)CNC(=O)[C@H](CCC(=O)O)NC(=O)C(C)(C)NC(=O)[C@@H](N)Cc1c[nH]cn1)[C@@H](C)O)[C@@H](C)O)C(C)C)C(C)C)C(=O)N[C@@H](C)C(=O)N[C@@H](Cc1c[nH]c2ccccc12)C(=O)N[C@@H](CC(C)C)C(=O)N[C@H](C(=O)N[C@@H](CCC(=O)O)C(=O)N[C@@H](CCCCN)C(=O)NC(C)(C)C(=O)NCC(=O)N[C@@H](CCC(=O)O)C(=O)N[C@@H](Cc1ccccc1)C(=O)N[C@@H](CC(C)C)C(N)=O)C(C)C
B5: [Aib2,Glu21,Aib30,Leu31,Glu32,Phe33,Leu34,Glu35,Leu36,Leu37]-Exendin-4-(1-37)-peptide amide (peptide)
peptide: H[Aib]EGTFTSDLSKQMEEEAVREFIEWLKNG[Aib]LEFLELL-NH2
modifications: N-terminus assumed
SMILES: CC[C@H](C)[C@H](NC(=O)[C@H](Cc1ccccc1)NC(=O)[C@H](CCC(=O)O)NC(=O)[C@H](CCCNC(=N)N)NC(=O)[C@@H](NC(=O)[C@H](C)NC(=O)[C@H](CCC(=O)O)NC(=O)[C@H](CCC(=O)O)NC(=O)[C@H](CCC(=O)O)NC(=O)[C@H](CCSC)NC(=O)[C@H](CCC(N)=O)NC(=O)[C@H](CCCCN)NC(=O)[C@H](CO)NC(=O)[C@H](CC(C)C)NC(=O)[C@H](CC(=O)O)NC(=O)[C@H](CO)NC(=O)[C@@H](NC(=O)[C@H](Cc1ccccc1)NC(=O)[C@@H](NC(=O)CNC(=O)[C@H](CCC(=O)O)NC(=O)C(C)(C)NC(=O)[C@@H](N)Cc1c[nH]cn1)[C@@H](C)O)[C@@H](C)O)C(C)C)C(=O)N[C@@H](CCC(=O)O)C(=O)N[C@@H](Cc1c[nH]c2ccccc12)C(=O)N[C@@H](CC(C)C)C(=O)N[C@@H](CCCCN)C(=O)N[C@@H](CC(N)=O)C(=O)NCC(=O)NC(C)(C)C(=O)N[C@@H](CC(C)C)C(=O)N[C@@H](CCC(=O)O)C(=O)N[C@@H](Cc1ccccc1)C(=O)N[C@@H](CC(C)C)C(=O)N[C@@H](CCC(=O)O)C(=O)N[C@@H](CC(C)C)C(=O)N[C@@H](CC(C)C)C(N)=O
B6: [Aib2,Glu21,Lys29,Aib30,Glu32,Phe33,Leu34,Glu35,Leu36,Leu37]-Exendin-4-(1-37)-peptide amide (peptide)
peptide: H[Aib]EGTFTSDLSKQMEEEAVREFIEWLKNK[Aib]PEFLELL-NH2
modifications: N-terminus assumed
SMILES: CC[C@H](C)[C@H](NC(=O)[C@H](Cc1ccccc1)NC(=O)[C@H](CCC(=O)O)NC(=O)[C@H](CCCNC(=N)N)NC(=O)[C@@H](NC(=O)[C@H](C)NC(=O)[C@H](CCC(=O)O)NC(=O)[C@H](CCC(=O)O)NC(=O)[C@H](CCC(=O)O)NC(=O)[C@H](CCSC)NC(=O)[C@H](CCC(N)=O)NC(=O)[C@H](CCCCN)NC(=O)[C@H](CO)NC(=O)[C@H](CC(C)C)NC(=O)[C@H](CC(=O)O)NC(=O)[C@H](CO)NC(=O)[C@@H](NC(=O)[C@H](Cc1ccccc1)NC(=O)[C@@H](NC(=O)CNC(=O)[C@H](CCC(=O)O)NC(=O)C(C)(C)NC(=O)[C@@H](N)Cc1c[nH]cn1)[C@@H](C)O)[C@@H](C)O)C(C)C)C(=O)N[C@@H](CCC(=O)O)C(=O)N[C@@H](Cc1c[nH]c2ccccc12)C(=O)N[C@@H](CC(C)C)C(=O)N[C@@H](CCCCN)C(=O)N[C@@H](CC(N)=O)C(=O)N[C@@H](CCCCN)C(=O)NC(C)(C)C(=O)N1CCC[C@H]1C(=O)N[C@@H](CCC(=O)O)C(=O)N[C@@H](Cc1ccccc1)C(=O)N[C@@H](CC(C)C)C(=O)N[C@@H](CCC(=O)O)C(=O)N[C@@H](CC(C)C)C(=O)N[C@@H](CC(C)C)C(N)=O
B7: [Aib2,Glu21,Lys29,Aib30,Leu31,Phe33,Leu34,Glu35,Leu36,Leu37]-Exendin-4-(1-37)-peptide amide (peptide)
peptide: H[Aib]EGTFTSDLSKQMEEEAVREFIEWLKNK[Aib]LSFLELL-NH2
modifications: N-terminus assumed
SMILES: CC[C@H](C)[C@H](NC(=O)[C@H](Cc1ccccc1)NC(=O)[C@H](CCC(=O)O)NC(=O)[C@H](CCCNC(=N)N)NC(=O)[C@@H](NC(=O)[C@H](C)NC(=O)[C@H](CCC(=O)O)NC(=O)[C@H](CCC(=O)O)NC(=O)[C@H](CCC(=O)O)NC(=O)[C@H](CCSC)NC(=O)[C@H](CCC(N)=O)NC(=O)[C@H](CCCCN)NC(=O)[C@H](CO)NC(=O)[C@H](CC(C)C)NC(=O)[C@H](CC(=O)O)NC(=O)[C@H](CO)NC(=O)[C@@H](NC(=O)[C@H](Cc1ccccc1)NC(=O)[C@@H](NC(=O)CNC(=O)[C@H](CCC(=O)O)NC(=O)C(C)(C)NC(=O)[C@@H](N)Cc1c[nH]cn1)[C@@H](C)O)[C@@H](C)O)C(C)C)C(=O)N[C@@H](CCC(=O)O)C(=O)N[C@@H](Cc1c[nH]c2ccccc12)C(=O)N[C@@H](CC(C)C)C(=O)N[C@@H](CCCCN)C(=O)N[C@@H](CC(N)=O)C(=O)N[C@@H](CCCCN)C(=O)NC(C)(C)C(=O)N[C@@H](CC(C)C)C(=O)N[C@@H](CO)C(=O)N[C@@H](Cc1ccccc1)C(=O)N[C@@H](CC(C)C)C(=O)N[C@@H](CCC(=O)O)C(=O)N[C@@H](CC(C)C)C(=O)N[C@@H](CC(C)C)C(N)=O

Target: human GLP-1 receptor (human, UniProt P43220)
Test: cell-based or functional assay

Point of comparison: B2, “CRE luciferase EC50, 0% HSA” value 0.034 nM. Against it:
- B1 — 7.9-fold higher, 0.269 nM
- B3 — 6-fold higher, 0.205 nM
- B4 — within 1.5-fold, 0.039 nM
- B5 — 2-fold higher, 0.067 nM
- B6 — 1.7-fold higher, 0.058 nM
- B7 — 11-fold higher, 0.358 nM

Point of comparison: B3, “CRE luciferase EC50, 1% HSA” value 0.062 nM. Against it:
- B1 — 1.7-fold higher, 0.104 nM
- B2 — 4.8-fold lower, 0.013 nM
- B4 — 4.8-fold lower, 0.013 nM
- B5 — 1.9-fold lower, 0.032 nM
- B6 — 1.9-fold lower, 0.032 nM
- B7 — 2.3-fold higher, 0.145 nM
